Consider 15 sequences from the supplement of paper PMC10724198.

Series [1] has as its system Saccharomyces cerevisiae. Put plainly: protein stability index of tFT-peptide fusion (C-terminal peptide) (PSI (0-1 scale)); higher = more stable (slower turnover). As for the experimental part:
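MPS profiling in S. cerevisiae of the tFT-X12 degron library: putative degron peptides plus stable controls, 12 aa, fused to the C-terminus of a sfGFP-mCherry timer. Cells are FACS-sorted into 8 mCherry/sfGFP bins and deep-sequenced. PSI runs from 0 (unstable) to 1 (stable). Backgrounds are wild type, das1Δ and doa10Δ at 30 °C, and wild type, das1Δ, cdc34-1 and cdc53-1 at 37 °C; 2-3 technical replicates each.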

Series [2] has as its system Saccharomyces cerevisiae. Described as above. To be noted: genetic background: wild type; temperature: 30 C.
Where [3] appears, read: genetic background: cdc34-1, temperature: 37 C.
[4] abbreviates: genetic background: cdc53-1, temperature: 37 C.
Setting [5] is: genetic background: das1 deletion, temperature: 30 C.
Setting [6] is: genetic background: das1 deletion, temperature: 37 C.
The mark [7] stands for this setting: genetic background: doa10 deletion, temperature: 30 C.
[8] abbreviates: genetic background: wild type, temperature: 30 C.
Where [9] appears, read: genetic background: wild type, temperature: 37 C.

± gives the standard deviation of the averaged measurements.
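Further: PSI is a weighted mean of sequencing reads over stability bins, variants kept only with over 10 reads, mCherry proximal and sfGFP distal, peptide attached via GGGS linker.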

In the case of FVGVVCILWLVG, the protein stability index was determined as 0.177 ± 0.0044 in the series with Saccharomyces cerevisiae [1] (setting [3]); 0.33 ± 0.0064 in the series on Saccharomyces cerevisiae [1] (setting [4]); 0.252 ± 0.022 in the series on Saccharomyces cerevisiae [1] (setting [5]); 0.405 ± 0.0085 in the series on Saccharomyces cerevisiae [1] (setting [6]); 0.153 ± 0.017 in the series with Saccharomyces cerevisiae [1] (setting [7]); 0.176 ± 0.026 with Saccharomyces cerevisiae [1] (setting [8]). Further, the protein stability index is 0.318 ± 0.073 in the series on Saccharomyces cerevisiae [1] (setting [9]) and 0.356 ± 0.011 with Saccharomyces cerevisiae [2].
For the sequence FVLFSIFHFFLW, the protein stability index is 0.424 ± 0.084 in the series with Saccharomyces cerevisiae [1] (setting [3]); 0.438 ± 0.039 with Saccharomyces cerevisiae [1] (setting [4]); 0.362 ± 0.051 in the series with Saccharomyces cerevisiae [1] (setting [5]); 0.528 ± 0.041 in the series with Saccharomyces cerevisiae [1] (setting [6]); 0.356 ± 0.0048 with Saccharomyces cerevisiae [1] (setting [7]); 0.347 ± 0.016 with Saccharomyces cerevisiae [1] (setting [8]). The protein stability index in the series on Saccharomyces cerevisiae [1] (setting [9]) came out at 0.47 ± 0.0094; in the series on Saccharomyces cerevisiae [2] it was 0.382 ± 0.027.
Regarding FVLSLGQLVFIF, the protein stability index amounted to 0.552 ± 0.03 in the series with Saccharomyces cerevisiae [1] (setting [3]); 0.5818 ± 0.0051 in the series with Saccharomyces cerevisiae [1] (setting [4]); 0.421 ± 0.028 with Saccharomyces cerevisiae [1] (setting [5]); 0.607 ± 0.018 with Saccharomyces cerevisiae [1] (setting [6]); 0.381 ± 0.0082 in the series on Saccharomyces cerevisiae [1] (setting [7]); 0.397 ± 0.029 with Saccharomyces cerevisiae [1] (setting [8]). For the same sequence, the figures for the protein stability index with Saccharomyces cerevisiae [1] (setting [9]) and in the series with Saccharomyces cerevisiae [2] were 0.548 ± 0.013 and 0.445 ± 0.016, respectively.
For FVSAFVCLLCLV, the protein stability index in the series on Saccharomyces cerevisiae [1] (setting [3]) was determined as 0.58 ± 0.041; in the series on Saccharomyces cerevisiae [1] (setting [4]), 0.6283 ± 0.006; in the series on Saccharomyces cerevisiae [1] (setting [5]), 0.509 ± 0.0073; with Saccharomyces cerevisiae [1] (setting [6]) it was 0.615 ± 0.0078; in the series with Saccharomyces cerevisiae [1] (setting [7]), 0.357 ± 0.013; in the series on Saccharomyces cerevisiae [1] (setting [8]), 0.377 ± 0.016. The protein stability index in the series on Saccharomyces cerevisiae [1] (setting [9]) came to 0.4877 ± 0.00084; with Saccharomyces cerevisiae [2], 0.4919 ± 0.004.
As for FVSFTVSFSVVV, the protein stability index amounted to 0.296 ± 0.018 with Saccharomyces cerevisiae [1] (setting [3]); 0.38 ± 0.031 in the series with Saccharomyces cerevisiae [1] (setting [4]); 0.334 ± 0.025 in the series with Saccharomyces cerevisiae [1] (setting [5]); 0.417 ± 0.01 in the series with Saccharomyces cerevisiae [1] (setting [6]); 0.357 ± 0.031 in the series on Saccharomyces cerevisiae [1] (setting [7]); 0.342 ± 0.0055 with Saccharomyces cerevisiae [1] (setting [8]). The results for the protein stability index in the series with Saccharomyces cerevisiae [1] (setting [9]) and with Saccharomyces cerevisiae [2] were 0.382 ± 0.0063 and 0.379 ± 0.032, respectively.
Regarding FVVIFRFSRFSA, the protein stability index worked out at 0.419 ± 0.12 in the series with Saccharomyces cerevisiae [1] (setting [3]); 0.477 ± 0.012 in the series with Saccharomyces cerevisiae [1] (setting [4]); 0.336 ± 0.025 in the series with Saccharomyces cerevisiae [1] (setting [5]); 0.512 ± 0.018 in the series with Saccharomyces cerevisiae [1] (setting [6]); 0.313 ± 0.0064 in the series on Saccharomyces cerevisiae [1] (setting [7]); 0.326 ± 0.0097 in the series with Saccharomyces cerevisiae [1] (setting [8]). Moreover, the protein stability index in the series with Saccharomyces cerevisiae [1] (setting [9]) turned out to be 0.494 ± 0.037; in the series with Saccharomyces cerevisiae [2], 0.39 ± 0.0004.
In the case of FWYIRIRLAVVA, the protein stability index is 0.0797 ± 0.027 with Saccharomyces cerevisiae [1] (setting [3]); 0.175 ± 0.029 in the series on Saccharomyces cerevisiae [1] (setting [4]); 0.0867 ± 0.013 in the series with Saccharomyces cerevisiae [1] (setting [5]); 0.179 ± 0.006 in the series with Saccharomyces cerevisiae [1] (setting [6]); 0.0283 ± 0.0015 with Saccharomyces cerevisiae [1] (setting [7]); 0.0257 ± 0.0096 in the series on Saccharomyces cerevisiae [1] (setting [8]). The protein stability index was determined as 0.0826 ± 0.01 with Saccharomyces cerevisiae [1] (setting [9]) and 0.0536 ± 0.019 in the series with Saccharomyces cerevisiae [2].
As to FYIWFFRLIYFF, the protein stability index in the series on Saccharomyces cerevisiae [1] (setting [3]) turned out to be 0.421 ± 0.043; with Saccharomyces cerevisiae [1] (setting [4]), 0.4414 ± 0.0014; in the series with Saccharomyces cerevisiae [1] (setting [5]), 0.402 ± 0.039; in the series with Saccharomyces cerevisiae [1] (setting [6]), 0.536 ± 0.019; in the series on Saccharomyces cerevisiae [1] (setting [7]) it was 0.344 ± 0.0048; with Saccharomyces cerevisiae [1] (setting [8]) it was 0.331 ± 0.01. The protein stability index in the series with Saccharomyces cerevisiae [1] (setting [9]) was determined as 0.453 ± 0.012; in the series on Saccharomyces cerevisiae [2] it was 0.408 ± 0.014.
Regarding FYTYILTVAEAL, the protein stability index in the series with Saccharomyces cerevisiae [1] (setting [3]) amounted to 0.518 ± 0.041; with Saccharomyces cerevisiae [1] (setting [4]), 0.583 ± 0.04; in the series on Saccharomyces cerevisiae [1] (setting [5]) it was 0.457 ± 0.021; with Saccharomyces cerevisiae [1] (setting [6]) it was 0.531 ± 0.013; in the series with Saccharomyces cerevisiae [1] (setting [7]), 0.454 ± 0.0094; with Saccharomyces cerevisiae [1] (setting [8]), 0.455 ± 0.014. Moreover, the protein stability index turned out to be 0.5273 ± 0.0011 with Saccharomyces cerevisiae [1] (setting [9]) and 0.482 ± 0.015 in the series on Saccharomyces cerevisiae [2].
Take GALVVSWAEVLC: the protein stability index amounted to 0.5163 ± 0.0026 in the series with Saccharomyces cerevisiae [1] (setting [3]); 0.525 ± 0.01 in the series with Saccharomyces cerevisiae [1] (setting [4]); 0.402 ± 0.024 in the series on Saccharomyces cerevisiae [1] (setting [5]); 0.555 ± 0.0083 in the series on Saccharomyces cerevisiae [1] (setting [6]); 0.372 ± 0.014 in the series with Saccharomyces cerevisiae [1] (setting [7]); 0.402 ± 0.037 with Saccharomyces cerevisiae [1] (setting [8]). Moreover, the protein stability index in the series on Saccharomyces cerevisiae [1] (setting [9]) was found to be 0.57 ± 0.02; with Saccharomyces cerevisiae [2], 0.503 ± 0.012.
As for GCLSFVAAVHLH, the protein stability index turned out to be 0.624 ± 0.026 in the series with Saccharomyces cerevisiae [1] (setting [3]); 0.6949 ± 0.0026 in the series on Saccharomyces cerevisiae [1] (setting [4]); 0.598 ± 0.043 in the series on Saccharomyces cerevisiae [1] (setting [5]); 0.69689 ± 0.00038 in the series with Saccharomyces cerevisiae [1] (setting [6]); 0.284 ± 0.024 in the series with Saccharomyces cerevisiae [1] (setting [7]); 0.332 ± 0.028 with Saccharomyces cerevisiae [1] (setting [8]). The protein stability index was 0.528 ± 0.034 in the series with Saccharomyces cerevisiae [1] (setting [9]) and 0.4325 ± 0.0028 with Saccharomyces cerevisiae [2].
Regarding GCRLRHRLVRIV, the protein stability index with Saccharomyces cerevisiae [1] (setting [3]) stood at 0.517 ± 0.038; in the series with Saccharomyces cerevisiae [1] (setting [4]), 0.646 ± 0.052; in the series on Saccharomyces cerevisiae [1] (setting [5]), 0.604 ± 0.035; with Saccharomyces cerevisiae [1] (setting [6]), 0.6902 ± 0.0065; in the series on Saccharomyces cerevisiae [1] (setting [7]), 0.109 ± 0.048; with Saccharomyces cerevisiae [1] (setting [8]), 0.119 ± 0.044. Also, the results for the protein stability index in the series with Saccharomyces cerevisiae [1] (setting [9]) and in the series with Saccharomyces cerevisiae [2] were 0.201 ± 0.011 and 0.2105 ± 0.0013, respectively.
As to GESCGGSERRVG, the protein stability index in the series with Saccharomyces cerevisiae [1] (setting [3]) amounted to 0.69 ± 0.019; in the series with Saccharomyces cerevisiae [1] (setting [4]) it was 0.7319 ± 0.0058; in the series with Saccharomyces cerevisiae [1] (setting [5]) it was 0.637 ± 0.009; in the series on Saccharomyces cerevisiae [1] (setting [6]), 0.7352 ± 0.0033; in the series on Saccharomyces cerevisiae [1] (setting [7]), 0.636 ± 0.024; in the series with Saccharomyces cerevisiae [1] (setting [8]), 0.666 ± 0.031. Also, the protein stability index in the series with Saccharomyces cerevisiae [1] (setting [9]) came out at 0.6897 ± 0.0056; with Saccharomyces cerevisiae [2] it was 0.643 ± 0.3.
As to GFGRDHGNDTGP, the protein stability index is 0.712 ± 0.017 in the series with Saccharomyces cerevisiae [1] (setting [3]); 0.7331 ± 0.0021 in the series on Saccharomyces cerevisiae [1] (setting [4]); 0.6497 ± 0.0025 with Saccharomyces cerevisiae [1] (setting [5]); 0.75 ± 0.0082 in the series with Saccharomyces cerevisiae [1] (setting [6]); 0.645 ± 0.021 with Saccharomyces cerevisiae [1] (setting [7]); 0.648 ± 0.02 in the series on Saccharomyces cerevisiae [1] (setting [8]). For the same sequence, the results for the protein stability index in the series with Saccharomyces cerevisiae [1] (setting [9]) and in the series on Saccharomyces cerevisiae [2] were 0.725 ± 0.0097 and 0.721 ± 0.0055, respectively.
Consider GFRVPVVVGVRG, for which the protein stability index worked out at 0.449 ± 0.023 with Saccharomyces cerevisiae [1] (setting [3]); 0.475 ± 0.03 in the series with Saccharomyces cerevisiae [1] (setting [4]); 0.334 ± 0.041 in the series with Saccharomyces cerevisiae [1] (setting [5]); 0.531 ± 0.0077 in the series on Saccharomyces cerevisiae [1] (setting [6]); 0.2939 ± 0.0024 with Saccharomyces cerevisiae [1] (setting [7]); 0.33 ± 0.042 in the series on Saccharomyces cerevisiae [1] (setting [8]). Besides, the protein stability index in the series on Saccharomyces cerevisiae [1] (setting [9]) turned out to be 0.4999 ± 0.0013; with Saccharomyces cerevisiae [2] it was 0.432 ± 0.0044.
